Assay results as given in publication PMC9646512, “Directed evolution and selection of biostable l-DNA aptamers with a mirror-image DNA polymerase”.

Target: native human alpha-thrombin (Homo sapiens, UniProt P00734;P00734 328-363;364-622)
Experiment: ITC; ITC: 20 mM HEPES-NaOH, 150 mM NaCl, 5 mM KCl, 2 mM MgCl2, 1 mM CaCl2, pH 7.4, 25 C; EMSA: same plus 0.05% Tween 20 and 10% glycerol, room temperature 30 min, ge

| Binder | Kd [nM] | binding result |
| --- | --- | --- |
| D-6 aptamer (structured_DNA) DNA: CGGATCCAGTTACGGAACTGAACAGAAGGGTGGTGTGGTTGGACTGTTCATTCAGTAAGCTTCGG | 27 |  |
| GATGAACTTGTTGAAACCCAACGGGAGAATCGTTCATT (structured_DNA, natural D-DNA) [D-L-9-2t] |  | no binding |
| ACGGAACGCGTTTCAAGACTACCGTGTTTGTTCCGT (structured_DNA, natural D-DNA) [D-L-9-1t] |  | no binding |
